Results on 6 molecules are retold here after patent US7994281 (EUROPEAN MOLECULAR BIOLOGY LABORATORY, dated 2011).

Residue numbers refer to the chain shown, from its start. Names and notes keep the numbering of the source. Some results are limits rather than exact numbers.

Test [1] deals with T1, DR4 (TRAIL-R1) Fc, recombinant receptor from R&D Systems (UniProt O00220 24-239, limits assumed).
T1 construct: also called soluble TRAIL-R1 Fc; not shown: Fc part of the bought Fc fusion
Description: SPR, Biacore 3000, 25 C, receptor amine-coupled to CM5 chip, ligand 2 ug/ml. The protocol: Binding experiments were performed using a surface plasmon resonance-based biosensor Biacore 3000 (Biacore AB, Uppsala, Sweden), at 25° C. Recombinant receptors were ordered from R&D systems (R&D systems, Minneapolis, Minn., USA). Immobilization of the receptors on the sensor surface of a Biacore CM5 sensor chip was performed following a standard amine coupling procedure according to the manufacturer's instructions. A reference surface was generated simultaneously under the same conditions but without receptor injection and used as a blank to correct for instrument and buffer artifacts. […] Binding of ligands to the receptors was monitored in real-time. The receptor/sensor surface was regenerated using 3 M sodium acetate pH 5.2 injections.
For orientation: Surface plasmon resonance follows binding to a sensor surface in real time, without labels.

In test [2] the target is T1, DR4 (TRAIL-R1) Fc, recombinant receptor …. Description: SPR, Biacore 3000, 37 C, receptor Fc on CM5 chip, ligand 0.1-250 nM. The protocol:
(§1) Binding experiments were performed using a surface plasmon resonance-based biosensor Biacore 3000 (Biacore AB, Uppsala, Sweden), at 37° C. Recombinant receptors were ordered from R&D systems (R&D systems, Minneapolis, Minn., USA). […] Receptors were coated at a level of ~600-800 RU. […] Between injections the receptor/sensor surface was regenerated using 30 µl of 3 M sodium acetate pH 5.2.

Test [3] deals with T2, DR5 (TRAIL-R2) Fc, recombinant receptor from R&D Systems (UniProt O14763 54-182, limits assumed).
T2 construct: also called soluble TRAIL-R2 Fc; immobilized TRAIL-R2 Fc; not shown: Fc part of the bought Fc fusion
The description is as above. The protocol:
as §1

The target in test [4] is T1, DR4 (TRAIL-R1) Fc, recombinant receptor …. Description: SPR, Biacore 3000, 37 C, receptor on chip, 1:1 Langmuir global fit, preliminary apparent Kd. How it is done: (§2) Binding of the purified mutants was assessed in real time using surface plasmon resonance on a Biacore 3000 with a sensor chip as described above. […] Measurements performed at 37° C. to allow increased $koff$ and dissociation was monitored for 20 min. Measured $kon$ and $koff$ rates were used to calculate apparent K_d values for the mutants for the respective receptors. A global fit procedure was used and a 1:1 Langmuir interaction model.

Test [5] has as its target T2, DR5 (TRAIL-R2) Fc, recombinant receptor …. The description is as above. The protocol: as §2
For test [6], the target named is T3, DcR1 (TRAIL-R3) Fc, recombinant receptor (UniProt O14798 26-221, limits assumed).
T3 construct: not shown: Fc part of the Fc fusion
T3 sequence (looked up): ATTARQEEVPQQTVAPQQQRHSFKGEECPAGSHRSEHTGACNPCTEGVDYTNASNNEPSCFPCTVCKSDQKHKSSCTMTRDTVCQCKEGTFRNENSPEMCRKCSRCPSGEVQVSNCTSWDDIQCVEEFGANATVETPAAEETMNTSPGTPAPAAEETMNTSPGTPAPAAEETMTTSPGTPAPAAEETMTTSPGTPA
The test is described as follows: SPR, Biacore 3000, 37 C, receptor Fc on CM5 chip. The protocol:
as §1

For test [7], the target named is T4, murine RANK (receptor) (murine, UniProt O35305 31-214, limits assumed).
T4 construct: Control surface in the SPR screening
T4 sequence (looked up): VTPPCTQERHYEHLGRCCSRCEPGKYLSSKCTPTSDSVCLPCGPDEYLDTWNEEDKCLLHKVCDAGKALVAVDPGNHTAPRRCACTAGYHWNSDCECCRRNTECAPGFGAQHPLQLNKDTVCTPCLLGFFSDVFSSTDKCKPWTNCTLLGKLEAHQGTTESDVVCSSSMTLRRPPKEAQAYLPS
Description: SPR (Biacore): clarified E. coli extract diluted 1:50 injected over immobilised DR4, DR5, DcR1 and RANK; bars are the response as a fraction of the DR4 response. The protocol: (§3) Control extracts of BL21 (DE3) culture without an over-expression plasmid and of a BL21 (DE3) culture with plasmid over-expressing SH3 domain were also injected.

Test [8] addresses T1, DR4 (TRAIL-R1) Fc, recombinant receptor …. The test is described as follows: SPR, receptor Fc immobilised, ligand 0.1 to 250 nM. The protocol:
as §1
(§4) Combinations between the stability variants and selectivity variants described above can be made, giving variants with enhanced stability and altered selectivity/specificity. […] Mutants were tested for receptor binding and biological activity as described in Examples 1, 2 and 3.

The target of test [9] is T2, DR5 (TRAIL-R2) Fc, recombinant receptor …. Description: SPR, receptor Fc immobilised, ligand 0.1 to 250 nM. How it is done: as §1, §4
Test [10] has as its target T1, DR4 (TRAIL-R1) Fc, recombinant receptor …. Description: SPR (Biacore), E. coli extracts diluted 1:50 over immobilised receptor. How it is done:
as §3

T2 sequence (O14763 54-182 limits assumed): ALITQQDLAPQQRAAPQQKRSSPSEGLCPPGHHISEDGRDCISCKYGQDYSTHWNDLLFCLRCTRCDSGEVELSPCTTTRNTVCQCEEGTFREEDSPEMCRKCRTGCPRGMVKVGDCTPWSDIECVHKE
T1 sequence (O00220 24-239 limits assumed): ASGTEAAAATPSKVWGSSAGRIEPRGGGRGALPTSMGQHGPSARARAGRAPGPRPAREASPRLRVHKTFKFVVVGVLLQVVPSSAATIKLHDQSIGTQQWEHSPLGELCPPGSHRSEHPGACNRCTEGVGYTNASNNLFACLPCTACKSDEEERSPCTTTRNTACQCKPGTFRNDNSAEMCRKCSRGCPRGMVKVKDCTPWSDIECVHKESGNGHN

B1: TRAIL mutant C1 (M1 + M3: E194I, I196S, S225A) (ligand)
chain: VRERGPQRVAAHITGTRGRSNTLSSPNSKNEKALGRKINSWESSRSGHSFLSNLHLRNGELVIHEKGFYYIYSQTYFRFQIESKENTKNDKQMVQYIYKYTSYPDPILLMKAARNSCWSKDAEYGLYSIYQGGIFELKENDRIFVSVTNEHLIDMDHEASFFGAFLVG
notes: Combination of M1 and M3 on soluble TRAIL 114-281
B1: the binding result in test [1] was “binds”.

B2: TRAIL mutant D269H (ligand)
chain: B1 chain with I81E, S83I, A112S, D156H
As to B2, in test [2], the “fold reduction in binding relative to wild-type TRAIL” value was more than 15 fold. For the same molecule, in test [3], the “fold improvement in binding relative to wild-type TRAIL” value is more than 10 fold. Moreover, the values for the Kd in [4] and in test [5] were 0.6 nM and less than 0.4 nM, respectively. The “fold decrease in binding compared to wild-type TRAIL” value in test [6] is approximately 10 fold.

B3: TRAIL mutant G160M (ligand)
chain: B1 chain with G47M, I81E, S83I, A112S
As to B3, in test [7], the binding result is reported as “no binding”. For the same molecule, the figures for the Kd in test [4] and in test [5] were 0.4 nM and 0.5 nM, respectively.

B4: TRAIL mutant D269HM1 (D269H combined with M1: E194I, I196S) (ligand)
chain: B1 chain with A112S, D156H
On to B4, for which the “fold reduction in binding relative to wild-type TRAIL” value in [8] is more than 8 fold. Further, the “fold improvement in binding relative to wild-type TRAIL” value in [9] is more than 8 fold.

B5: TRAIL mutant E195R (ligand)
chain: B1 chain with I81E, E82R, S83I, A112S
For B5, in test [10], the binding result is given as “binds”.

B6: TRAIL mutant M3 (S225A) (ligand)
chain: B1 chain with I81E, S83I
notes: Stability mutant built on soluble TRAIL 114-281
B6: the binding result in test [1] is given as “binds”.
